# Patent US8894997B2
# Columns and labels:
# [1] = biological target: HA of A/Mexico/4108/2009 virus (influenza A/Mexico/4108/2009 (H1N1) virus)
# [2] = biological target: 1918 HA displayed on virus-like particles, reconstituted 1918 virus or transfected mammalian cells (influenza A/South Carolina/1/18 (H1N1) virus)
# [3] = biological target: HA of influenza A/Weiss/43 (H1N1) virus (influenza A/Weiss/43 (H1N1) virus)
# [4] = biological target: HA of influenza A/USSR/92/77 (H1N1) virus (influenza A/USSR/92/77 (H1N1) virus)
# [5] = biological target: Recombinant A/South Carolina/1/1918 virus HA (influenza A/South Carolina/1/18 (H1N1) virus)
# [6] = biological target: HA of influenza A/Swine/Iowa/15/30 (H1N1) virus (influenza A/Swine/Iowa/15/30 (H1N1) virus)
# [7] = biological target: 1918 HA displayed on virus-like particles, reconstituted 1918 virus or transfected mammalian cells (influenza A/South Carolina/1/18 (H1N1) virus); remark: listed apart in the source
Substance,"HAI, reciprocal titer of serum (reciprocal titer) [1]","HAI, reciprocal titer of serum (reciprocal titer) [2]",specific neutralizing activity [3],Specific HAI activity [4],specific neutralizing activity [4],Kd [5],koff [5],kon [5],Specific HAI activity [6],Specific HAI activity [7],"HAI, specific activity [1]","Neut Ab, specific activity [1]","HAI, specific activity [2]"
Normal mouse serum (polyclonal serum or antibody),< 10,< 10,,,,,,,,,,,
mAb 1F1 (antibody),,,1.8 µg/mL,0.16 µg/mL,0.88 µg/mL,5.4 nM,0.00017 s⁻¹,31000 M⁻¹ s⁻¹,0.04 µg/mL,0.08 µg/mL,> 5 µg/mL,> 5 µg/mL,0.04 µg/mL
